For the test, the target named is Toxoplasma gondii ABCB7-like (TgABCB7L), TGGT1_269000 (Toxoplasma gondii). As to the kind of experiment: native gel or EMSA; BN-PAGE (4-16% Bis-Tris) of ABCB7L-HA parasites solubilised in 1% βDDM on ice, immunoblot with anti-HA; bovine mitochondrial membranes as size marker. In general terms: Mobility shift assays separate free from complexed probe on a gel.

One may read the stoichiometry N as the number of molecules, sites or subunits per partner or assembly. Regarding “Toxoplasma gondii ABCB7-like (TgABCB7L), TGGT1_269000 (natural protein)”, the stoichiometry N worked out at 2.
